The values that follow come from PMC8091081 (Infection and Immunity, 2021).

Experiment [1] concerns the target PhtD of pneumococcal strain TIGR4 (serotype 4), endogenous (Streptococcus pneumoniae TIGR4 …, UniProt A0A0H2UPR0). The experiment can be described thus: Western blot. For orientation: A western blot detects proteins with antibodies after separation by electrophoresis.
Experiment [2] addresses PhtD of pneumococcal strain TCH8431 (serotype 19A), endogenous (Streptococcus pneumoniae TCH8431 …, UniProt A0A0H2UPR0, strain). The experiment can be described thus: Western blot.
Experiment [3] deals with MBP-PhtD fragment, amino acids 341 to 838 (Streptococcus pneumoniae TCH8431 …, UniProt A0A0H2UPR0, strain). The experiment can be described thus: ELISA. A general note: An ELISA detects its analyte on a solid surface through an enzyme-linked reagent.

B1: human MAb PhtD3 (antibody, V domains shown)
VH: QVQLVQSGPDVKKPGSSVKVSCKASGAAFESFAFAWVRQAPGQGFEWMGRIIPILETRDYAEKFQGRMTMTTDESTATAYMELNSLRFEDTAVYFCARDGHIMRTTLSDAALDVWGQGTTVIVSS
VL: DIVMTQSPVTLSLSPGERATLSCRASQSLTDNYLAWYQQKPGQAPRLLIYAASTRATGIPDRISGSGSGTDFTLTISRVEPEDFAMFYCQQYQNSPFTFGGGTTVEIK
On to B1, for which the binding result in experiment [1] and in experiment [2] was “binds” each time.

B2: human MAb PhtD7 (antibody, V domains shown)
VH: EVQLVQSGAEVKKPGASVKVSCKASGDIFSDSYIHWVRQAPGQGPEWMGWVSPNTGATHYAQKLQGRVTMTSDTSISTAYLELTRLASDDTAVYYCARVLRGSYDFRGNYPHDFDYWGQGTLVTVSS
VL: QLVLTQPPSASASLGASVTLTCTLSRGHNNYPIAWLQKQTDKGPRYVMRLNSDGSHHKGDGIPDRFSGSSSGAERYLSISSLQPEDEAEYYCQTWDTGLQGVFGGGTKLFVL
B2: in experiment [3], the binding result is reported as “binds”.
